Measured values as given in doi:10.1101/2025.09.30.679481.

Target: Bicaudal-D (D. melanogaster (endogenous in embryos)) (UniProt P16568)
Assay: co-IP

Sequence of UniProt P16568 (P16568 whole entry): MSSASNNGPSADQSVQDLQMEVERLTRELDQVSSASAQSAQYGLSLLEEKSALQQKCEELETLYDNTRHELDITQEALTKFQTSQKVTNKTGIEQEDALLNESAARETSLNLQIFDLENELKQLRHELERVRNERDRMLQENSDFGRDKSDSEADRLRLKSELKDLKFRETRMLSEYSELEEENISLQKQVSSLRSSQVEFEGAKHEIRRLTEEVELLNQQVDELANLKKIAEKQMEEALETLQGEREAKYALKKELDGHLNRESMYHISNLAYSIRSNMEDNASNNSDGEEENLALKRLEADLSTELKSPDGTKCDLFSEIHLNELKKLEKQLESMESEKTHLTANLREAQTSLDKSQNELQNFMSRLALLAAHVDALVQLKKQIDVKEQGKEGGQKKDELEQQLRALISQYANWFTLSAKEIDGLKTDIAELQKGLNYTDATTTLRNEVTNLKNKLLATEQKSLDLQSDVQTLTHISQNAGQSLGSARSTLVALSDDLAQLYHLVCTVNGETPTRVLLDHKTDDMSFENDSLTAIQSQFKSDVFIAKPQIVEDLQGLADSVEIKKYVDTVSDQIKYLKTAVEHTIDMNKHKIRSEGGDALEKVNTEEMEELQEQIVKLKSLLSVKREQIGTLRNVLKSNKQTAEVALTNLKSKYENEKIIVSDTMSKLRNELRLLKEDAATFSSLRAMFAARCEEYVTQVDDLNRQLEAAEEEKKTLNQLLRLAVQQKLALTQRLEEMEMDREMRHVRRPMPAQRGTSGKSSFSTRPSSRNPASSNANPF

reduction of the co-precipitate by RNase: 84%
Substance: Imp (natural protein)
